Values quoted from earlier work, collected in publication PMC7460564.
Read-outs that look alike come from different tables or passages of the source.

Tests used:
EGFR ECD (Homo sapiens) [1] = target: EGFR ECD (Homo sapiens) (UniProt P00533)
EGFR ECD (Homo sapiens) [2] = target: EGFR ECD (Homo sapiens) (UniProt P00533); remark: listed apart in the source
HER2 (Homo sapiens) = HER2 (Homo sapiens) (UniProt P04626)
EGFR (Homo sapiens) = EGFR (Homo sapiens) (UniProt P00533)

Substance | Kd (EGFR ECD (Homo sapiens) [1]) [nM] | Kd (EGFR ECD (Homo sapiens) [2]) [nM] | Kd (HER2 (Homo sapiens)) [nM] | Kd (EGFR (Homo sapiens)) [nM]
EGF (from UniProt P01133) | 15 | – | – | –
PEPD (prolidase) (from UniProt P12955) | – | 5300 | 7.3 | 17.7
